Patent publication EP2620453B1

Key:
[1] = molecular target: Stx1 (type-I Shiga toxin, recombinant holotoxin) (EHEC O157:H7) (UniProt P08026); experiment: ELISA, plates coated with Stx1, serum titer
[2] = molecular target: Stx2 (type-II Shiga toxin, recombinant holotoxin) (EHEC O157:H7) (UniProt P09386); experiment: ELISA, plates coated with Stx2, serum titer

“serum of the placebo control PBS group (BALB/c mice) (antibody)” was tested, and the titer of serum IgA and IgG [1] was < 2 and the titer of serum IgA and IgG [2] was < 2.
